Reference: patent US20210361735A1, “MINIGASTRIN DERIVATES, IN PARTICULAR FOR USE IN CCK2 RECEPTOR POSITIVE TUMOUR DIAGNOSIS AND/OR TREATMENT” (PAUL SCHERRER INSTITUT, priority 2017, published 2021)
Numbered stars: 1 amine (or outer) side, 2 acyl side, 3 side chain; on linkers, the order of the positions; unused ones are H or OH. Square brackets hold non-standard residues; d marks the D form. Peptide text beside a SMILES is read from it. * marks the point of attachment. X1 = CCCC[C@@H](C(=O)[*:2])n1cc([C@H](Cc2c[nH]c3ccccc23)N[*:1])nn1; X4 = C[C@H](N[*:1])c1cn([C@@H](Cc2ccc(O)cc2)C(=O)[*:2])nn1; DOTA = O=C(O)CN1CCN(CC(=O)O)CCN(CC(=O)*)CCN(CC(=O)O)CC1; X3 = O=C([C@H](Cc1c[nH]c2ccccc12)n1cc(CN[*:1])nn1)[*:2]; X2 = O=C(Cn1cc([C@H](Cc2ccc(O)cc2)N[*:1])nn1)[*:2]; Nle = CCCC[C@H](N)C(=O)O

What was measured:
Fig. 4 = test: Fig. 4
Experimental: (§1) Table printed on a drawing sheet, Fig. 4
(§2) Footnotes: Significant improvement / Significant drawback
First reader's note: Light grey shading of a cell marks a significant improvement and dark grey shading a significant drawback; logD was measured at pH 7.4.

Blood plasma stability = assay type: in vitro ADME; settings: human blood plasma, 37° C.; for at least more than 2 hours; FIG. 3
Experimental: The ^177Lu-labelled compounds were diluted with 0.9% NaCl to a concentration of 3.75 μM and incubated (375 pmol, 100 μL, 7.5-12 MBq) in nitrogen-flushed fresh human blood plasma (1.5 mL) at 37° C. At different time points (0.5, 1, 2, 4, 6 and 24 h) aliquots (75 μL) were taken and the proteins were precipitated in CH3CN (100 μL) and centrifuged (2 min, 14680 rpm, rt). The supernatant (75 μL) was diluted with water (75 μL) and analyzed by γ-HPLC.

CCK2R = CCK2R (Homo sapiens, UniProt P32239); test: IC50 (nM); design: Human Medullary Thyroid Cancer cells (MZ-CRCl) expressing the CCK2R; endogenous in cells; host or cells: MZ-CRC1 human medullary thyroid cancer cells
Chain of CCK2R (P32239 whole entry, looked up): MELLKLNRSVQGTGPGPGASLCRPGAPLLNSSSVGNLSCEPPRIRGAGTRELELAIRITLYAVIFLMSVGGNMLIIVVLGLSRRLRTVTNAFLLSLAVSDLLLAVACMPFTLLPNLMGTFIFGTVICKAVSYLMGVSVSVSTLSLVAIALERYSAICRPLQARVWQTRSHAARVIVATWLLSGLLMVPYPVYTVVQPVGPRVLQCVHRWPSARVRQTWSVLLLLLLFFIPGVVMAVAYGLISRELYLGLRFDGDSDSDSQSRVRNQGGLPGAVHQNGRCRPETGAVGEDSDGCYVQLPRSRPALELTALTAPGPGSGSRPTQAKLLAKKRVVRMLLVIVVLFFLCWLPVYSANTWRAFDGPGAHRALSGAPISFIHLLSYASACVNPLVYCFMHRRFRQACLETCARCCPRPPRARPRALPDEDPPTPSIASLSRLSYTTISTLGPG
Experimental: as §1
Head of the field: IC50 (nM)
as §2
First copying reader's note: Light grey shading of a cell marks a significant improvement and dark grey shading a significant drawback; logD was measured at pH 7.4.
Where the first naming reader finds the target: patent_title: MINIGASTRIN DERIVATES, IN […] FOR USE IN CCK2 RECEPTOR POSITIVE TUMOUR DIAGNOSIS AND/OR TREATMENT

[1] = tested on: CCK-2 receptor positive tumours; settings: in vivo; cited from earlier work

| Compound | Plasma half live (Fig. 4) [h] | other results |
| --- | --- | --- |
| CCCC[C@H](NC(=O)[C@H](Cc1c[nH]c2ccccc12)NC(=O)CNC(=O)[C@H](Cc1ccc(O)cc1)n1cc([C@H](C)NC(=O)[C@@H](CCC(=O)O)NC(=O)CN2CCN(CC(=O)O)CCN(CC(=O)O)CCN(CC(=O)O)CC2)nn1)C(=O)N[C@@H](CC(=O)O)C(=O)N[C@@H](Cc1ccccc1)C(N)=O [DOTA[Nle15, Ala11-(Tz)-Tyr12]-MG11] ({DOTA}-[dE][X4]GW[Nle]DF-NH2) | 16.7 | – |
| CCCC[C@H](NC(=O)[C@H](Cc1c[nH]c2ccccc12)n1cc(CNC(=O)[C@H](Cc2ccc(O)cc2)NC(=O)[C@H](C)NC(=O)[C@@H](CCC(=O)O)NC(=O)CN2CCN(CC(=O)O)CCN(CC(=O)O)CCN(CC(=O)O)CC2)nn1)C(=O)N[C@@H](CC(=O)O)C(=O)N[C@@H](Cc1ccccc1)C(N)=O [DOTA[Nle15, Gly13-(Tz)-Trp14]-MG11] ({DOTA}-[dE]AY[X3][Nle]DF-NH2) | 4.3 | – |
| CCCC[C@@H](C(=O)N[C@@H](CC(=O)O)C(=O)N[C@@H](Cc1ccccc1)C(N)=O)n1cc([C@H](Cc2c[nH]c3ccccc23)NC(=O)CNC(=O)[C@H](Cc2ccc(O)cc2)NC(=O)[C@H](C)NC(=O)[C@@H](CCC(=O)O)NC(=O)CN2CCN(CC(=O)O)CCN(CC(=O)O)CCN(CC(=O)O)CC2)nn1 [DOTA[Nle15, Trp14-(Tz)-Nle15]-MG11] ({DOTA}-[dE]AYG[X1]DF-NH2) | >24 | – |
| CCCC[C@H](NC(=O)[C@H](Cc1c[nH]c2ccccc12)NC(=O)Cn1cc([C@H](Cc2ccc(O)cc2)NC(=O)[C@H](C)NC(=O)[C@@H](CCC(=O)O)NC(=O)CN2CCN(CC(=O)O)CCN(CC(=O)O)CCN(CC(=O)O)CC2)nn1)C(=O)N[C@@H](CC(=O)O)C(=O)N[C@@H](Cc1ccccc1)C(N)=O [DOTA[Nle15, Tyr^12-(Tz)-Gly^13]-MG11, DOTA[Nle15, Tyr12-ψ[Tz]-Gly13]-MG11] ({DOTA}-[dE]A[X2]W[Nle]DF-NH2) | – | peptides remaining stable in plasma (Blood plasma stability): more than 60% |
| CCCC[C@H](NC(=O)[C@H](Cc1c[nH]c2ccccc12)NC(=O)CNC(=O)[C@H](Cc1ccc(O)cc1)NC(=O)[C@H](C)NC(=O)[C@@H](CCC(=O)O)NC(=O)CN1CCN(CC(=O)O)CCN(CC(=O)O)CCN(CC(=O)O)CC1)C(=O)N[C@@H](CC(=O)O)C(=O)N[C@@H](Cc1ccccc1)C(N)=O [DOTA[Nle15]-MG11, DOTA-DGlu-Ala-Tyr-Gly-Trp-Nle-Asp-Phe-NH2] ({DOTA}-[dE]AYGW[Nle]DF-NH2) | – | IC50 (CCK2R): 0.0161 µM |
| DOTA-DGlu-DGlu-DGlu-DGlu-DGlu-DGlu-Ala-Tyr-Gly-Trp-Nle-Asp-Phe-NH2 [PP-F11N] | – | tumour-kidney-ratio [1]: excellent |
